Laboratory results reported in patent publication US20220380482A1.

Target: human neonatal Fc receptor (FcRn) (human) (UniProt P55899)
Assay: SPR (Biacore T200), FcRn amine-coupled to CM5 chip, antibody as analyte, steady state fit, pH 6.0

Sequence of human neonatal Fc receptor (FcRn) (human) (P55899 24-297 limits assumed, chain 1 of 2): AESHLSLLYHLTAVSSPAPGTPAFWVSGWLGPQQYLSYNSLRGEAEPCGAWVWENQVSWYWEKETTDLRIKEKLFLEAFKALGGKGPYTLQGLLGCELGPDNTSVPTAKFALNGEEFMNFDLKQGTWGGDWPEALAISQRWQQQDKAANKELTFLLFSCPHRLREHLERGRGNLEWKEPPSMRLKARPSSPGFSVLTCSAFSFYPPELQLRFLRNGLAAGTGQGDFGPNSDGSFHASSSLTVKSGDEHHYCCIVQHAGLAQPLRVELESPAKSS
Sequence of human neonatal Fc receptor (FcRn) (human) (P61769 21-119 limits assumed, chain 2 of 2, further chain): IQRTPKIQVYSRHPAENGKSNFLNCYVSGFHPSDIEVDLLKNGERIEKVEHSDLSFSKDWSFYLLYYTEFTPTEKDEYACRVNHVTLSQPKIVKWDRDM

Irrelevant IgG1 (antibody)
Kd: 2370 nM

Irrelevant IgG4 (antibody)
Kd: 3250 nM
